The values that follow come from the Human Domainome abundance scans (Beltran et al. 2025).

First the molecules themselves.
B1: Far upstream element-binding protein 1, residues 184 to 257; numbered along this chain, Q96AE4 (parent)
chain: GNAVQEIMIPASKAGLVIGKGGETIKQLQERAGVKMVMIQDGPQNTGADKPLRITGDPYKVQQAKEMVLELIRD

± gives the uncertainty stated by the source.

In this series the parent is B1. The series is described as follows: abundance fitness (aPCA) (normalised: wild type 0, dead -1); higher = more abundant; growth selection in yeast, the domain comes from the species named. Particulars: Homo sapiens.
On to GNAVQEIMIPASKAGLVIGKGGETIKQLQERAGVKMVMIQDGPPNTGADKPLRITGDPYKVQQAKEMVLELIRD, for which the abundance fitness worked out at 0.006 ± 0.037.

Consider GNAVQEIMIPASKAGLVIGKGGETIKQLQERAGVKMVMIQDGPMNTGADKPLRITGDPYKVQQAKEMVLELIRD, for which the abundance fitness is -0.007 ± 0.04.

Take GNAVQEIMIPASKAGLVIGKGGETIKQLQERAGVKMVMIQDGPNNTGADKPLRITGDPYKVQQAKEMVLELIRD: the abundance fitness stood at 0.02 ± 0.048.

On to GNAVQEIMIPASKAGLVIGKGGETIKQLQERAGVKMVMIQDGPCNTGADKPLRITGDPYKVQQAKEMVLELIRD, for which the abundance fitness was -0.083 ± 0.043.

Regarding GNAVQEIMIPASKAGLVIGKGGETIKQLQERAGVKMVMIQDGPLNTGADKPLRITGDPYKVQQAKEMVLELIRD, the abundance fitness is -0.055 ± 0.032.

Consider GNAVQEIMIPASKAGLVIGKGGETIKQLQERAGVKMVMIQDGPHNTGADKPLRITGDPYKVQQAKEMVLELIRD, for which the abundance fitness was found to be 0.042 ± 0.052.

Consider GNAVQEIMIPASKAGLVIGKGGETIKQLQERAGVKMVMIQDGPENTGADKPLRITGDPYKVQQAKEMVLELIRD, for which the abundance fitness was -0.06 ± 0.034.

Consider GNAVQEIMIPASKAGLVIGKGGETIKQLQERAGVKMVMIQDGPFNTGADKPLRITGDPYKVQQAKEMVLELIRD, for which the abundance fitness is -0.082 ± 0.053.

As for GNAVQEIMIPASKAGLVIGKGGETIKQLQERAGVKMVMIQDGPDNTGADKPLRITGDPYKVQQAKEMVLELIRD, the abundance fitness is 0.004 ± 0.047.

GNAVQEIMIPASKAGLVIGKGGETIKQLQERAGVKMVMIQDGPGNTGADKPLRITGDPYKVQQAKEMVLELIRD: the abundance fitness is 0.007 ± 0.027.

In the case of GNAVQEIMIPASKAGLVIGKGGETIKQLQERAGVKMVMIQDGPINTGADKPLRITGDPYKVQQAKEMVLELIRD, the abundance fitness is -0.046 ± 0.056.

With GNAVQEIMIPASKAGLVIGKGGETIKQLQERAGVKMVMIRDGPQNTGADKPLRITGDPYKVQQAKEMVLELIRD, the abundance fitness was -0.053 ± 0.028.

Consider GNAVQEIMIPASKAGLVIGKGGETIKQLQERAGVKMVMIPDGPQNTGADKPLRITGDPYKVQQAKEMVLELIRD, for which the abundance fitness is -0.052 ± 0.035.

In the case of GNAVQEIMIPASKAGLVIGKGGETIKQLQERAGVKMVMIMDGPQNTGADKPLRITGDPYKVQQAKEMVLELIRD, the abundance fitness was -0.085 ± 0.041.

On to GNAVQEIMIPASKAGLVIGKGGETIKQLQERAGVKMVMIVDGPQNTGADKPLRITGDPYKVQQAKEMVLELIRD, for which the abundance fitness was -0.052 ± 0.032.

In the case of GNAVQEIMIPASKAGLVIGKGGETIKQLQERAGVKMVMISDGPQNTGADKPLRITGDPYKVQQAKEMVLELIRD, the abundance fitness was -0.042 ± 0.032.

On to GNAVQEIMIPASKAGLVIGKGGETIKQLQERAGVKMVMIIDGPQNTGADKPLRITGDPYKVQQAKEMVLELIRD, for which the abundance fitness was -0.147 ± 0.065.

As to GNAVQEIMIPASKAGLVIGKGGETIKQLQERAGVKMVMITDGPQNTGADKPLRITGDPYKVQQAKEMVLELIRD, the abundance fitness was -0.059 ± 0.036.

In the case of GNAVQEIMIPASKAGLVIGKGGETIKQLQERAGVKMVMIKDGPQNTGADKPLRITGDPYKVQQAKEMVLELIRD, the abundance fitness was -0.025 ± 0.041.

On to GNAVQEIMIPASKAGLVIGKGGETIKQLQERAGVKMVMILDGPQNTGADKPLRITGDPYKVQQAKEMVLELIRD, for which the abundance fitness is -0.076 ± 0.031.

As to GNAVQEIMIPASKAGLVIGKGGETIKQLQERAGVKMVMIWDGPQNTGADKPLRITGDPYKVQQAKEMVLELIRD, the abundance fitness was -0.086 ± 0.039.

GNAVQEIMIPASKAGLVIGKGGETIKQLQERAGVKMVMIYDGPQNTGADKPLRITGDPYKVQQAKEMVLELIRD: the abundance fitness was -0.049 ± 0.061.

Regarding GNAVQEIMIPASKAGLVIGKGGETIKQLQERAGVKMVMIQFGPQNTGADKPLRITGDPYKVQQAKEMVLELIRD, the abundance fitness is -0.189 ± 0.055.

As to GNAVQEIMIPASKAGLVIGKGGETIKQLQERAGVKMVMIQGGPQNTGADKPLRITGDPYKVQQAKEMVLELIRD, the abundance fitness was -0.009 ± 0.026.

GNAVQEIMIPASKAGLVIGKGGETIKQLQERAGVKMVMIQKGPQNTGADKPLRITGDPYKVQQAKEMVLELIRD: the abundance fitness was -0.007 ± 0.04.

Take GNAVQEIMIPASKAGLVIGKGGETIKQLQERAGVKMVMIQTGPQNTGADKPLRITGDPYKVQQAKEMVLELIRD: the abundance fitness is -0.052 ± 0.036.

Consider GNAVQEIMIPASKAGLVIGKGGETIKQLQERAGVKMVMIQVGPQNTGADKPLRITGDPYKVQQAKEMVLELIRD, for which the abundance fitness was -0.023 ± 0.031.

For the variant GNAVQEIMIPASKAGLVIGKGGETIKQLQERAGVKMVMIQAGPQNTGADKPLRITGDPYKVQQAKEMVLELIRD, the abundance fitness is -0.077 ± 0.031.

In the case of GNAVQEIMIPASKAGLVIGKGGETIKQLQERAGVKMVMIQHGPQNTGADKPLRITGDPYKVQQAKEMVLELIRD, the abundance fitness is -0.048 ± 0.05.

For GNAVQEIMIPASKAGLVIGKGGETIKQLQERAGVKMVMIQMGPQNTGADKPLRITGDPYKVQQAKEMVLELIRD, the abundance fitness was -0.089 ± 0.045.

As for GNAVQEIMIPASKAGLVIGKGGETIKQLQERAGVKMVMIQLGPQNTGADKPLRITGDPYKVQQAKEMVLELIRD, the abundance fitness was -0.095 ± 0.031.

For the variant GNAVQEIMIPASKAGLVIGKGGETIKQLQERAGVKMVMIQQGPQNTGADKPLRITGDPYKVQQAKEMVLELIRD, the abundance fitness was -0.006 ± 0.041.

As to GNAVQEIMIPASKAGLVIGKGGETIKQLQERAGVKMVMIQCGPQNTGADKPLRITGDPYKVQQAKEMVLELIRD, the abundance fitness is -0.034 ± 0.047.

With GNAVQEIMIPASKAGLVIGKGGETIKQLQERAGVKMVMIQNGPQNTGADKPLRITGDPYKVQQAKEMVLELIRD, the abundance fitness amounted to 0.047 ± 0.049.

In the case of GNAVQEIMIPASKAGLVIGKGGETIKQLQERAGVKMVMIQEGPQNTGADKPLRITGDPYKVQQAKEMVLELIRD, the abundance fitness was determined as 0.009 ± 0.035.

With GNAVQEIMIPASKAGLVIGKGGETIKQLQERAGVKMVMIQRGPQNTGADKPLRITGDPYKVQQAKEMVLELIRD, the abundance fitness was -0.052 ± 0.028.

Regarding GNAVQEIMIPASKAGLVIGKGGETIKQLQERAGVKMVMIQYGPQNTGADKPLRITGDPYKVQQAKEMVLELIRD, the abundance fitness was -0.139 ± 0.054.
